Read-outs that look alike come from different tables or passages of the source. One block for each substance: values may come before it.
Experiments:
[1] = target: MARM B1 F protein (RSV B 18537 F, N201D) (Human respiratory syncytial virus, D25-resistant mutant of strain 18537) (UniProt P13843)
[2] = target: MARM B2 F protein (RSV B 18537 F, L204V) (Human respiratory syncytial virus, D25-resistant mutant of strain 18537) (UniProt P13843); assay: cell-based or functional assay
[3] = target: MARM A1 F protein (RSV A2 F, N208Y) (Human respiratory syncytial virus, D25-resistant mutant of strain A2) (UniProt P03420); assay: cell-based or functional assay
[4] = target: MARM B1 F protein (RSV B 18537 F, N201D) (Human respiratory syncytial virus, D25-resistant mutant of strain 18537) (UniProt P13843); assay: cell-based or functional assay
[5] = target: MARM A1 F protein (RSV A2 F, N208Y) (Human respiratory syncytial virus, D25-resistant mutant of strain A2) (UniProt P03420)
[6] = target: MARM B2 F protein (RSV B 18537 F, L204V) (Human respiratory syncytial virus, D25-resistant mutant of strain 18537) (UniProt P13843)
[7] = target: RSV A2 F protein on untreated cells (pre-fusion form) (Human respiratory syncytial virus, strain A2) (UniProt P03420); assay: cell-based or functional assay
[8] = target: RSV-B F protein from strain 18537 (wild type) (Human respiratory syncytial virus, strain 18537 (subtype B)) (UniProt P13843)
[9] = target: RSV A2 F protein on untreated cells (pre-fusion form) (Human respiratory syncytial virus, strain A2) (UniProt P03420)
[10] = target: RSV A2 F protein on untreated cells (pre-fusion form) (Human respiratory syncytial virus, strain A2) (UniProt P03420); remark: listed apart in the source
[11] = target: RSV-F protein (as used in the D25 competition binding assay) (respiratory syncytial virus, strain not stated)
[12] = target: SK-epitope: amino acids 195-228 of RSV A2 F protein (C212S) in the inhibitor loop of Ecballium elate (Human respiratory syncytial virus, strain A2 (insert); Ecballium elaterium (scaffold))
[13] = target: HR1 construct containing amino acids 153-221 of RSV A2 F protein (Human respiratory syncytial virus, strain A2)
[14] = target: MARM A1 F protein (RSV A2 F, N208Y) (Human respiratory syncytial virus, D25-resistant mutant of strain A2) (UniProt P03420); remark: listed apart in the source
[15] = target: RSV-B F protein from strain 18537 (wild type) (Human respiratory syncytial virus, strain 18537 (subtype B)) (UniProt P13843); assay: cell-based or functional assay
[16] = target: MARM B2 F protein (RSV B 18537 F, L204V) (Human respiratory syncytial virus, D25-resistant mutant of strain 18537) (UniProt P13843); remark: listed apart in the source
[17] = target: RSV-B F protein from strain 18537 (wild type) (Human respiratory syncytial virus, strain 18537 (subtype B)) (UniProt P13843); remark: listed apart in the source
[18] = target: MARM B1 F protein (RSV B 18537 F, N201D) (Human respiratory syncytial virus, D25-resistant mutant of strain 18537) (UniProt P13843); remark: listed apart in the source
[19] = target: RSV-F protein (as used in the D25 competition binding assay) (respiratory syncytial virus, strain not stated); assay: competition ELISA on infected cells against biotin-labeled D25 at 100 ng/ml constant, A450 [cont'd) D]

Substance: palivizumab (antibody)
IC50 (read off the curve) [1]: 200 µg/mL
RSV microneutralization assay (antibody concentration able to neutralize) [2]: 100 µg/mL
RSV microneutralization assay (antibody concentration able to neutralize) [3]: 100 µg/mL
RSV microneutralization assay (antibody concentration able to neutralize) [4]: 100 µg/mL
IC50 (read off the curve) [5]: 40 µg/mL
IC50 (read off the curve) [6]: 300 µg/mL

Substance: monoclonal antibody D25
RSV microneutralization assay (antibody concentration able to neutralize) [7]: 1 µg/mL
IC50 (read off the curve) [8]: 0.07 µg/mL
IC50 (read off the curve) [9]: 10 µg/mL
IC50 (read off the curve) [10]: 0.1 µg/mL
IC50 (read off the curve) [11]: 0.6 µg/mL
Kd [12]: 0.0585 nM
Kd [13]: 1.9 nM

Substance: motavizumab (antibody)
IC50 (read off the curve) [14]: 0.1 µg/mL
RSV microneutralization assay (antibody concentration able to neutralize) [2]: < 0.1 µg/mL
RSV microneutralization assay (antibody concentration able to neutralize) [3]: < 0.1 µg/mL
RSV microneutralization assay (antibody concentration able to neutralize) [15]: < 100 ng/mL
RSV microneutralization assay (antibody concentration able to neutralize) [4]: < 0.1 µg/mL
IC50 (read off the curve) [16]: 0.04 µg/mL
IC50 (read off the curve) [17]: 0.1 µg/mL
IC50 (read off the curve) [18]: 0.06 µg/mL

IC50 (read off the curve) [19]: 2 µg/mL
Substance: anti-RSV-F antibody AM22

— US20150366960A1
